Laboratory results reported in FireProtDB (doi:10.1111/febs.13659).

B1: Cytosolic beta-glucosidase, O61594 (parent)
chain: MKLLVVLSLVAVACNASIVRQQRRFPDDFLFGTATASYQIEGAWDEDGKGENIWDYMVHNTPEVIRDLSNGDIAADSYHNYKRDVEMMRELGLDAYRFSLSWARILPTGMANEVNPAGIAFYNNYIDEMLKYNITPLITLYHWDLPQKLQELGGFANPLISDWFEDYARVVFENFGDRVKMFITFNEPREICFEGYGSATKAPILNATAMGAYLCAKNLVTAHAKAYYLYDREFRPVQGGQCGITISVNWFGPATPTPEDEMAAELRRQGEWGIYAHPIFSAEGGFPKELSDKIAEKSAQQGYPWSRLPEFTEEEKAFVRGTSDLIGVNHYTAFLVSATERKGPYPVPSLLDDVDTGSWADDSWLKSASAWLTLAPNSIHTALTHLNNLYNKPVFYITENGWSTDESRENSLIDDDRIQYYRASMESLLNCLDDGINLKGYMAWSLMDNFEWMEGYIERFGLYEVDFSDPARTRTPRKAAFVYKHIIKHRVVDYEYEPETMVMTIDEGH

Variants of: B1
Details: Spodoptera frugiperda, pH 6, Thermal, Potassium phosphate 10mM, transition: 2, structure 5CG0, whole UniProt chain shown
[1] = Differential Scanning Fluorimetry

Variant	Tm (CD)	change of melting temperature, mutant - wild type (higher = more stable) (CD)	ddG of mutation (higher = less stable) (CD)	unfolding enthalpy (calorimetric) (CD)	unfolding free energy (CD)	Tm [1]	change of melting temperature, mutant - wild type (higher = more stable) [1]
L100A	46.4 °C	0.4 °C	-0.81 kcal/mol	53 kcal/mol	24 kcal/mol	47.6 °C	2.6 °C
N249A	38.5 °C	-7.5 °C	0.94 kcal/mol	48.2 kcal/mol	22.3 kcal/mol	39 °C	-6 °C
F251A	42.2 °C	-3.8 °C	0.67 kcal/mol	52.3 kcal/mol	22.5 kcal/mol	42.4 °C	-2.6 °C
M262F	45.7 °C	-0.3 °C	-0.53 kcal/mol	91.7 kcal/mol	23.7 kcal/mol	45 °C	0 °C
A263F	39.6 °C	-6.4 °C	0.43 kcal/mol	44.2 kcal/mol	22.8 kcal/mol	40.6 °C	-4.4 °C
E265A	44.9 °C	-1.1 °C	-0.43 kcal/mol	51.1 kcal/mol	23.6 kcal/mol	44.9 °C	-0.1 °C
F334A	42.9 °C	-3.1 °C	1.11 kcal/mol	72.5 kcal/mol	22.1 kcal/mol	42.5 °C	-2.5 °C
L335A	38.5 °C	-7.5 °C	0.84 kcal/mol	55.2 kcal/mol	22.4 kcal/mol	40 °C	-5 °C
V336F	30 °C	-16 °C	2.14 kcal/mol	51.6 kcal/mol	21.1 kcal/mol	34 °C	-11 °C
L350A	43.5 °C	-2.5 °C	0.7 kcal/mol	61.4 kcal/mol	22.5 kcal/mol	43.8 °C	-1.2 °C
K366A	41.5 °C	-4.5 °C	1.25 kcal/mol	74.6 kcal/mol	22 kcal/mol	41 °C	-4 °C
L389A	46.4 °C	0.4 °C	-0.67 kcal/mol	81.1 kcal/mol	23.9 kcal/mol	46.6 °C	1.6 °C
Y390A	43 °C	-3 °C	0.34 kcal/mol	72.5 kcal/mol	22.9 kcal/mol	45.1 °C	0.1 °C
N391A	44.4 °C	-1.6 °C	–	–	–	46 °C	1 °C
Y420A	37 °C	-9 °C	1.42 kcal/mol	47.8 kcal/mol	21.8 kcal/mol	37.2 °C	-7.8 °C
S247A	–	–	–	–	–	45.3 °C	0.3 °C
D260A	–	–	–	–	–	40.8 °C	-4.2 °C
E261A	–	–	–	–	–	46.2 °C	1.2 °C
S337F	–	–	–	–	–	40.4 °C	-4.58 °C
S358A	–	–	–	–	–	42 °C	-3 °C
